From publication PMC5701160

Molecular target: PSI core complex (Haematococcus pluvialis (endogenous in strain K-0084))
Assay: estimate from pigment ratios (HPLC) of the isolated B5 fraction; from Chl a/b and Chl/Car ratios, assuming 3.4 Cars per Lhca subunit and 100 Chl a per PSI core complex

- stoichiometry N (Lhca proteins per P700): 5
Substance: LHCI antenna proteins
